According to patent US20250312473A1, “B7H3 ANTIBODY DRUG CONJUGATES” (BEONE MEDICINES I GMBH, priority 2022, published 2025):

Target: T1, ECD of human 4Ig-B7H3 (Homo sapiens, UniProt Q5ZPR3)
T1 construct: ECD of human 4Ig-B7H3 (Sinobiological, Cat: 11188-H08H); purchased Sinobiological 11188-H08H
T1 sequence (Q5ZPR3 29-466 limits assumed): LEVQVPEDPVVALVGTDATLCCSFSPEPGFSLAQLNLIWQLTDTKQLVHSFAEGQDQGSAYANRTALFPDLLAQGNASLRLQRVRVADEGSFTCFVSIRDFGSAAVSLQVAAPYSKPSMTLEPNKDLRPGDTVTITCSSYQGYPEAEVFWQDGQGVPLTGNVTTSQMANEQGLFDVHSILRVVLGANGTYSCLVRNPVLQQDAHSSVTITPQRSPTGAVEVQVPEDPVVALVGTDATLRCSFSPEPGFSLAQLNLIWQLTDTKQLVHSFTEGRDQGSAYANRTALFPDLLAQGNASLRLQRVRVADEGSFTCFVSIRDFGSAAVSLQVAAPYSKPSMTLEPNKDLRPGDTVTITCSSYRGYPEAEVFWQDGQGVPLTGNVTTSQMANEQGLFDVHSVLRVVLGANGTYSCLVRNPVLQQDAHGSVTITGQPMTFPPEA
Test: SPR affinity determination
Assay type: binding
From the text: For affinity determination, antibodies were captured by anti-human Fc surface, and used in an affinity assay based on surface plasmon resonance (SPR) technology. The results of SPR-determined binding profiles of humanized antibodies to ECD of human 4Ig-B7H3 (Sinobiological, Cat: 11188-H08H) were summarized in Table 20.

B1: BGA-4348: "1^st version of humanized antibody BGA-4348", CDR-grafted from BGA-3295, human IgG1 variant format (antibody)
heavy: QIQLVQSGAEVKKPGSSVKVSCKASGYTFTNYDINWVRQAPGQGLEWMGWIYPGDGSAYYNEKFKGRATITADKSTSTAYMELSSLRSEDTAVYYCARWGYGGVPFAYWGQGTLVTVSSASTKGPSVFPLAPSSKSTSGGTAALGCLVKDYFPEPVTVSWNSGALTSGVHTFPAVLQSSGLYSLSSVVTVPSSSLGTQTYICNVNHKPSNTKVDKKVEPKSCDKTHTCPPCPAPPAAGPSVFLFPPKPKDTLMISRTPEVTCVVVDVSHEDPEVKFNWYVDGVEVHNAKTKPREEQYNSTYRVVSVLTVLHQDWLNGKEYKCKVSNKALAAPIEKTISKAKGQPREPQVYTLPPSRDELTKNQVSLTCLVKGFYPSDIAVEWESNGQPENNYKTTPPVLDSDGSFFLYSKLTVDKSRWQQGNVFSCSVMHEALHNHYTQKSLSLSPGK
light: DIVMTQSPDSLAVSLGERATINCKSSQSLLNDINQKNYLAWYQQKPGQSPKLLVYFASTGVSGVPDRFSGSGSGTDFTLTISSLQAEDVAVYYCQQYYSFPWTFGGGTKVEIK
modifications: left off: a dimerising Fc or GST
notes: "1st version of humanized antibody BGA-4348", CDR-grafted from BGA-3295, human IgG1 variant format
koff (Test 1): 1.04e-05 s⁻¹
kon (Test 1): 31500 M⁻¹ s⁻¹
koff (Test 2): 0.000227 s⁻¹
kon (Test 2): 369000 M⁻¹ s⁻¹
Kd (read-out: dissociation constants): 0.6 nM
